T1: hIL1RAP (Homo sapiens, UniProt Q9NPH3)
T1 sequence (Q9NPH3 21-367 limits assumed): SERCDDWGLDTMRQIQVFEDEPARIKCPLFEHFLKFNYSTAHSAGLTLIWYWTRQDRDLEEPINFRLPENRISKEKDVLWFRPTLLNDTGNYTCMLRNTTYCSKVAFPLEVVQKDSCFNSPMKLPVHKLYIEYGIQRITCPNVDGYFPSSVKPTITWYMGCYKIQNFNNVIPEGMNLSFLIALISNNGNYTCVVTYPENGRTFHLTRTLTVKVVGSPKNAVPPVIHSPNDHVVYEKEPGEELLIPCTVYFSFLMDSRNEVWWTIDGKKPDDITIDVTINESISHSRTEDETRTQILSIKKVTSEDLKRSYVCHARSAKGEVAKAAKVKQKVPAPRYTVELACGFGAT


Tests used:
cyIL1RAP = assay: Kinetics of IL1RAP mAbs by Octet, cynomolgus IL1RAP; assay type: binding
Protocol: (§1) Antibodies were diluted in kinetics buffer (0.1% BSA, 0.02% Tween-20 and 0.05% NaN3 in PBS) and loaded onto 16 channel anti-mouse IgG Fc capture sensors (AMC, Cat #2001073; Sartorius, Göttingen, Germany). Human, huIL1RAP-His (Sino Biological, lot: MB08MA1301), and monkey, cyIL1RAP-His (Lake Pharma, NY, USA; lot:16205819371) proteins were titrated starting from the highest concentration of 100 nM and followed by 50 nM and 25 nM. Purified antibodies were loaded at 5 μg/ml in kinetics buffer. The experimental parameters selected to determine the kinetic constants were Baseline for 60 s, Loading of antibody to sensor for 180 s, Association of analyte to antibody for 120 s, Dissociation for 1200 s and Regeneration in 10 mM Glycine pH 1.7 for 4×30 s.
(§2) Regeneration cycle tracking was selected for 12 cycles. Binding to human and cynomolgus IL1RAP was measured and KD (M) kinetics were calculated. Also, the disassociation rate (Kdis) (1/s) and association rate (Kon) (1/Ms) kinetics were calculated (data not shown).

[1] = test system: IL1-induced NFκB activity; assay: HEK-BlueIL1β NFκB Reporter Assay; assay type: cell-based; details: nM range, read-out: IC50, inhibition of IL1-induced NFκB activity
Protocol: The HEK-Blue IL1β (Invivogen, Cat #hkb-il1b) cell line was used to monitor NFκB activity upon stimulation with IL1β cytokine. In this cell line the secreted embryonic alkaline phosphatase reporter gene (SEAP) is inducibly expressed under the control of IFN-β minimal promoter fused to NFκB/AP-1. Specificity to IL1β cytokine was achieved by blockage of TNF-α response. The cells were maintained in the presence of hygromycin (200 μg/ml) and zeocin (100 μg/ml).
For the functional assay, cells were plated at a density of 5×10^4 cells/well in 96-well plates. Cells were treated with each antibody at the highest concentration of 200 μg/ml followed by seven serial 1:3 dilutions and incubated for 45 minutes at 37° C./5% CO2 in humified incubator. Cells were then stimulated with IL1β ([…]) and incubated overnight at 37° C./5% CO2 in humified incubator. Every treatment was conducted in triplicates. Following, supernatants from each well were mixed with Quanti-Blue substrate (Invivogen, CA USA; Cat #rep-qb1) according to manufacturer's recommendations and secreted SEAP was measured using spectrophotometer at 650 nm.

[2] = test system: IL33-induced NFκB activity; assay: HEK-BlueIL33 NFκB Reporter Assay; assay type: cell-based, human; details: nM range, read-out: IC50, inhibition of IL33-induced NFκB activity
From the text: HEK-Blue IL33 (Invivogen, Cat #hkb-hil33) cell line was used to monitor NFκB activity upon stimulation with IL33 cytokine. The secreted embryonic alkaline phosphatase reporter gene (SEAP) is inducible expressed under the control of IFN-β minimal promoter fused to NFκB/AP-1. HEK-BlueIL33 cells were also generated upon stable transfection with human IL1RL1 (ST2) gene. Specificity to IL33 cytokine was achieved by blockage of TNF-α and IL1 response. Cells are maintained in the presence of hygromycin (200 μg/ml), zeocin (100 μg/ml) and blasticidin (10 μg/ml).
For the functional assay, cells were plated at a density of 5×10^4 cells/well in 96-well plates. Cells were treated with each antibody at the highest concentration of 200 μg/ml followed by seven serial 1:3 dilutions and incubated for 45 minutes at 37° C./5% CO^2 in humified incubator. Cells were then stimulated with IL33 (12 μM) and incubated overnight at 37° C./5% CO2 in humified incubator. Every treatment was conducted in triplicates. Following, supernatants from each well were mixed with Quanti-Blue substrate (Invivogen, Cat #rep-qb1) according to manufacturer's recommendations and secreted SEAP was measured using spectrophotometer at 650 nm.

hIL1RAP = target: T1, hIL1RAP; assay: Kinetics of IL1RAP mAbs by Octet, human IL1RAP; assay type: binding; parameters: extracellular domain His-tagged, Cat #10121-H08H; His; purchased Sino Biological lot MB08MA1301 (catalogue number not given)
Protocol: as §1, §2

[3] = test system: patient-derived AML samples; assay: Cell viability of patient-derived AML samples, CellTiter-Glo; assay type: cell-based, human; details: 15 patient-derived AML samples; 0.1-100 nM, 6 days
Protocol: Primary patient-derived AML cells collected using leukapheresis or peripheral blood draw were selected based on expression levels of IL1RAP, IL1R1 and IL1RL1. On study day 0, cell viability was calculated, and cells were seeded at a density of 20,000 viable cells/well in 96-well plates. Cells were treated on Day 0 with IL1RAP monoclonal antibodies at a concentration of 100 nM followed by 5-fold serial dilutions. Cytarabine treatment (5 μM) was used as a positive control. Plates were kept at 37° C./5% CO2 in humified incubator and media was not changed during the duration of the assay. On Day 6, plates were removed from incubator and equilibrated to room temperature for up to 30 minutes. Then CellTiter-Glo was added to wells (100 μl) and plates were mixed for 2 minutes on plate rocker, followed by 10 minutes incubation at room temperature. Luminescent signal was recorded using Tecan plate reader and IC50s were calculated.

Row | Molecule | IC50 [1] | IC50 [2] | hIL1RAP kdis(1/s) (hIL1RAP) | hIL1RAP kon(1/Ms) (hIL1RAP) | cyIL1RAP kdis(1/s) (cyIL1RAP) | cyIL1RAP kon(1/Ms) (cyIL1RAP) | Inhibition of viability [3]
1 | 74804_05B24A: anti-IL1RAP mAb; VH SEQ ID NO:10, VL SEQ ID NO:26, κ light chain (antibody, V domains shown, 74804_05B24A VH; 74804_05B24A VL) VH: EVQLVDSGGGLVKPGGSLRLSCAATGFTFSNVWMSWVRQGSGKGLEWVGRIKSKTDGGTIDYAAPVKGRFTISRDDPKNTLYLQMNSLKTEDTAVYYCTTGELLGFDYWGQGTLVTVSS VL: DIVMTQSPLSLPVTPGEPASISCRSGQSLLHNNGFNCLAWYLQKPGQSPQLLIYLGSNRASGVPDRFSGSGSGTDFTLKISRVEAEDVGVFYCMQTLQTPITFGQGTRLEIK | 0.446 nM | 2.72 nM | 0.000491 s⁻¹ | 294400 M⁻¹ s⁻¹ | 0.000563 s⁻¹ | 267900 M⁻¹ s⁻¹ | inhibition of viability of patient-derived AML samples
2 | 74804_51C10A: anti-IL1RAP mAb; VH SEQ ID NO:8, VL SEQ ID NO:24, κ light chain (antibody, V domains shown, 74804_51C10A VH; 74804_51C10A VL) VH: QVQLLQSGAEVKKPGSSVKVSCKASGGTFNIYAIDWVRQAPGQGLEWMGGIIPIFGTANSAQKFQGRVTITADKSTNTAYMELSSLRSEDTAVYYCARNGATSDAFDIWGQGTMVTVSS VL: EIVLTQSPGTLSLSPGERATLSCRASQSVSSNYLAWFQQRPGQAPRLLIYGVSRRATGIPDRFSGSGSGTDFTLTISRLEPEDFAVYYCQQYGSSPLTFGGGTKVEIK | 2.5 nM | 13 nM | 0.000301 s⁻¹ | 343500 M⁻¹ s⁻¹ | 0.000459 s⁻¹ | 325600 M⁻¹ s⁻¹ | 
3 | 74804_29D13A: anti-IL1RAP mAb; VH SEQ ID NO:6, VL SEQ ID NO:22, κ light chain (antibody, V domains shown, 74804_12A21B VH and 74804_29D13A VH; 74804_07K10A VL, 74804_29D13A VL and 74804_43F04A VL) VH: QVQLLQSGAEVKKPGSSVKVSCKASGGTFSIYAIDWVRQAPGQGLEWMGGIIPIFGTANSAQKFQGRVTITADKSTSTAYMELSSLRSEDTAVYYCARNGATSDAFDMWGQGTMVTVSS VL: EIVLTQSPGTLSLSPGERATLSCRASLSVSSNYLAWFQQRPGQAPRLLIYGVSRRATGIPDRFSGSGSGTDFTLTISRLEPEDFAVYYCQQYGSSPLTFGGGTKVEIK | 1.85 nM | 8.75 nM | 0.000361 s⁻¹ | 336100 M⁻¹ s⁻¹ | 0.00065 s⁻¹ | 329600 M⁻¹ s⁻¹ | 

Continued by falling IC50 [1], values first:

Row | IC50 [1] | IC50 [2] | hIL1RAP kdis(1/s) (hIL1RAP) | hIL1RAP kon(1/Ms) (hIL1RAP) | Molecule | cyIL1RAP kdis(1/s) (cyIL1RAP) | cyIL1RAP kon(1/Ms) (cyIL1RAP) | Inhibition of viability [3]
4 | 3.19 nM | 6.62 nM | 0.000234 s⁻¹ | 392100 M⁻¹ s⁻¹ | 74804_07K10A: anti-IL1RAP mAb; VH SEQ ID NO:5, VL SEQ ID NO:22, κ light chain (antibody, V domains shown, 74804_07K10A VH; 74804_07K10A VL, 74804_29D13A VL and 74804_43F04A VL) VH: QVQLLQSGAEVKKPGSSVKVSCRASGGTFSIYAIDWVRQAPGQGLEWMGGIIPISGTENSAQNFQDRITITADKSTNTAYMELSSLRSEDTAVYYCARNGATSDAFDIWGQGTMVTVSS VL: EIVLTQSPGTLSLSPGERATLSCRASLSVSSNYLAWFQQRPGQAPRLLIYGVSRRATGIPDRFSGSGSGTDFTLTISRLEPEDFAVYYCQQYGSSPLTFGGGTKVEIK | 0.000283 s⁻¹ | 376800 M⁻¹ s⁻¹ | 
5 | 1.96 nM | 8.31 nM | 0.000747 s⁻¹ | 350400 M⁻¹ s⁻¹ | 74804_27I24A: anti-IL1RAP mAb; VH SEQ ID NO:13, VL SEQ ID NO:29, λ light chain (antibody, V domains shown, 74804_27I24A VH; 74804_27I24A VL) VH: EVQLVESGGGLVKPGGSLRLSCAASGFTFITYSMNWVRQAPGKGLEWVSSISSISSYIYYADSVKGRFTISRDNAKNSLYLQMDSLRAEDSAVYYCAREGIVGPTGYFDSWGQGTLVTVSS VL: QSVLTQPPSVSAAPGQKVTISCSGSSSNIGNHYVSWYQQLPGTAPKLLIYDNNKRPSGIPDRFSGSKSGTSATLGITGLQTGDEADYYCGTWDSRLSAYWVFGGGTKLTVL | 0.001071 s⁻¹ | 379500 M⁻¹ s⁻¹ | inhibition of viability of patient-derived AML samples
6 | 1.77 nM | 6.55 nM | 0.000337 s⁻¹ | 154500 M⁻¹ s⁻¹ | 74804_25H09A: anti-IL1RAP mAb; VH SEQ ID NO:9, VL SEQ ID NO:25, κ light chain (antibody, V domains shown, 74804_25H09A VH; 74804_25H09A VL) VH: QVQLVQSGAEVKKPGSSVKVSCKASGDTFSNYAITWVRQAPGQGLEWIVGFSPIFGTANYAQKFQGRVTITADKSTSTAYMELSSLISEDTAVYYCAWGSGNFNWFDPWGQGTLVTVSS VL: AIRMTQSPSSFSASTGDRVTITCRASQGISSYLAWYQQKPGKAPKLLIYAASTLQSGVPSRFSGSGSGTDFTLTISSLQSEDFATYYCQQYYSYPLTFGGGTKVEIK | 0.000297 s⁻¹ | 142000 M⁻¹ s⁻¹ | 
7 | 1.73 nM | 4.81 nM | 0.00037 s⁻¹ | 227800 M⁻¹ s⁻¹ | 74804_18L05A: anti-IL1RAP mAb; VH SEQ ID NO:4, VL SEQ ID NO:21, κ light chain (antibody, V domains shown, 74804_18L05A VH; 74804_18L05A VL) VH: QVQLVQSGAEVKKPGASVKVSCKTSGYTFTSCCMHWVRQAPGQGLEWMGIINPSVGSTSYAQKFQGIVTMTRDTSTSTVYMELSSLRSEDTAVYYCAVDSSGSRYYYGMDVWGQGTTVTVSS VL: EIVMTQSPATLSVSPGERATLSCRASQSVRSNLAWYQQRPGQAPRLLIYGTSTRATGIPARFSGSGSGTEFTLTISSLQSEDFAVYYCQQYNYWPYTFGQGTKLEIK | 0.000954 s⁻¹ | 221100 M⁻¹ s⁻¹ | 

From patent US20240392013A1, “IL1RAP ANTIBODIES AND USES THEREOF” (STELEXIS THERAPEUTICS, LLC, priority 2021, published 2024)
